Data taken from the DeepSol protein solubility set.

Test: soluble on expression in E. coli; label from the status in PepcDB or PDB records
With “MSLAASKGNLLSPDRILTVAHRGASGYVPEHTILSYETAQKMKADFIELDLQMTKDGKLIVMHDEKLDRTTNGMGWVKDHTLADIKKLDAGSWFNEAYPEKAKPQYVGLKVPTLEEVLDRFGKHANYYIETKSPDTYPGMEEKLIASLQKHKLLGKHSKPGQVIIQSFSKESLVKVHQLQPNLPTVQLLEAKQMASMTDAALEEIKTYAVGAGPDYKALNQENVRMIRSHGLLLHPYTVNNEADMHRLLDWGVTGVFTNYPDLFHKVKKGYEGHHHHHH” the “soluble on expression in E. coli” value was “soluble”.
In the case of “MSLAATNKRHSTSDKMHFPRSSLQPITTLGKSEFGEVFLAKAQGLEEGVAETLVLVKSLQSKDEQQQLDFRRELEMFGKLNHANVVRLLGLCREAEPHYMVLEYVDLGDLKQFLRISKSKDEKLKSQPLSTKQKVALCTQVALGMEHLSNNRFVHKDLAARNCLVSAQRQVKVSALGLSKDVYNSEYYHFRQAWVPLRWMSPEAILEGDFSTKSDVWAFGVLMWEVFTHGEMPHGGQADDEVLADLQAGKARLPQPEGCPSKLYRLMQRCWALSPKDRPSFSEIASALGDSTVDSKEGHHHHHH”, the “soluble on expression in E. coli” value is reported as “soluble”.
With “MSLADKRIGILVYDGVLTSDVTAPLEVFGVASRLTWFSDYEVLTISVSDQKTITTEEGLEIGVDAWIGDQPELDVLVLTSSYDMDALIENKDLIHFIQTTSKAADWMASNCSGAYLLAEAGLLNGKKATTWAGGENGLQKDYPAVDVQFNQNFVVDDGVITSNGSLVSYQAALKLLHLMTSESKAQEVADALQYSRFSTEGHHHHHH” the “soluble on expression in E. coli” value was “soluble”.
In the case of “MSLADPIKIGVIAEAQAIAGASIPQAAQLAAEEINAKGGIDGRKIEIVSYDNHSSSADSVRAFQRAVNEDKVNAVIASYISEVVLALMPWASRLKTPFVTPGAASNEITKAINKDYEKNKYTFHGYLTSGELAQSVCDAAKDLLVDARQMKSAVIMSEDAAWTKPLDVGYQECLPKVGLKVLDHIRFSPDTTDFTPIFNKIEGSKPDVIITGISHVGVQPTVQWKNQQVPIPMFGIASQATNETFGKDTNNASDGVLYQGVSGPGVAVTSKSVPFAENFKKKYGNYPSYAGYTAYDEVYYIAEAVKRAGSTDGEKLVEALEKTDYEGTIGRVQFYGKDEPFTHGLKYGKGLLTGLMLQWQDGKQVAVWPPEVAKAEGHHHHHH”, the “soluble on expression in E. coli” value is reported as “soluble”.
For “MSLADRLLDIKRIYHEPGIERFPRARAVLERYPDAERVEVLSHQAIPGLYGNEGNVEDWVRNKREVMVIGEKKSLSARRNERSSDWIAPSTANGCAMACSYCYVPRRKGYANPITVFANIEKITGYLERHAARQGAKPEPNQCDPIDWVYDIGENSDCSADAMVSDNVRDLVDLFGRIPNAKASFATKLVNRDLLTYEPRGGTRVRFSLMPAETSRLVDVRTSKISDRIAAIDDFVEAGYEVHLNFSPVIVHENWIADWADLLEQIADQTNDRTRRQLAAEVIFLTHNEGLHDVNLGWHPKGEELLWRPDLQQLKRSQSGQWNVRYKSPWKGKWVQQMTDLVADRLPDCRIRYAEGHHHHHH”, the “soluble on expression in E. coli” value was “not soluble”.
For “MSLADVILHAFNWPYATVEARAKQIADAGYRKVLVAPAYRSEGSAWWARYQPQDIRLIDNPLGDTAAFKKMVQALASNGVETYADIVFNHMANEAATRSDLNYPGGAVLSQYAANPGRYDSLRLFGTLQSNFLSASDFGPAQCISNYNDAYQVRNYRICGGGSDPGLPDLLGNDWVVQQQRAYLQALKSMGVTGFRVDAAKHMTFDHLNRVFDAGIRSGVYVFGEVITGGGTGNGDYDQFLAPYLQSTPHAAYDFPLFNAVRNAFAIGASMQQLVDPAASGQALPGNRAVTFAVTHDIPNNAGFRYAILDPVDETLAYAYLIGRNGGMPMLYTDNNESGDNRWVNAYLRDDLRRMIGFHNGVQGTDMQVLSSSSCHILFRRGSLGIVGINKCGNPVTTTVGMNNSVLYWNADYVDALGSGNVVRISSSSYTFTLPARGARMWRREGHHHHHH”, the “soluble on expression in E. coli” value was “not soluble”.
In the case of “MSLAEGGFVDDAKASFNLRNFYINRNFVDPANPQGKAEEWTQSFILDARSGFTQGTIGFGVDMLGLYSLKLDGGKGTAGTHLLPVHDDGRPADDFGRLGVALKARLSQTELKVGEWMPVLPILRSDDGRSLPQTFRGGQLTSRELDGLTLYAGQFRGNSPRNDASMEDMFMQGRTGITSDRFNFAGGEYTFNDKRTMLGLWNAQLKDIYRQQYVNLVHSQPLGEWTLGANLGYFLGKEDGSARAGDLDNRTASAMLSARYKGHTFYIGLQKVSGDDAWMRVNGTSGGTLANDSYNASFDNAKERSWQLRHDFNFVTVGLPGLTLMNRYIKGDNVHTSAVDDGKEWARETELAYVVQSGVFKDLSVKWRNSTMRRDFSSNAFDENRVIVSYPLNLLEGHHHHHH”, the “soluble on expression in E. coli” value is reported as “soluble”.
For “MSLAEPRYKADIGGGSLKLPESRIIAGLLLEGVTEDQWRHAIEVENVLQRRSPGTAKRQSSLMRNRLETMGPELWQMVRDGSTQVAIQAVFAAAIKHSTLLGDFLDLVVRDQFRMFRPDLPRKMWDQYLEQCRNRDPLMPVWQDSTANKLADCVYRILVEVGYITDSKTYRLKSVRISGEVMSYLRENNEQYVIRCIQVSIEGHHHHHH”, the “soluble on expression in E. coli” value was “soluble”.
With “MSLAFDTLFLNARFDGGTRHHIAVKDGRIAAITSVDQPPAGAETIDLKDALVVPGFVEGHIHLDTSFYGDAWRPHKPCADGFNVHERVAFQAQNMAEAAPMDVRARNQLDLCIGHGTTQMRSHVIVDGSVGLKSLETILRVREEYNGLIDIQLVAFPQSGILSSPGTAQLLDEAIGLGANLVGGLDPASFDRDVEKHLDVVFGVANKHGVDIDIHLHDMGTLGAFEIEQIAARTRALGMEGRVAVSHAYGLGDIPADYLKKVAEILARSGVAIMTNAPGARPFPPILALRNAGVTVFSGNDNIRDSWWPYGDGDMLRRATTLGYRSGFNIDEELRAAFDVVTASGAKALRLEGYGLRIGAKADFVALNAEHVPEAVVAVPQGRSVYKDGRLVAANGRIVGKSGEGHHHHHH” the “soluble on expression in E. coli” value was “not soluble”.
For “MSLAFYIATFDIGTTEVKAALADRDGGLHFQRSIALETYGDGNGPVEQDAGDWYDAVQRIASSWWQSGVDARRVSAIVLSGQMQNFLPLDQDHEPLHRAVLYSDKRPLKEAEEINARHGADNLWSALENPMTAASILPKLVFWRASFPQAFGRLRHVVLGAKDYVVLRLTGRHATDRTNASTTGLYRPKDDAWHVELLADYGFSLDLMPRLLEPGEQVGGVSALAARQTGFVSGTPVLCGLGDAGAATLGVGVLDDEDAYLHLGTTGWLARLTQTDPVGDMPVGTIFRLAGIIAGKTLQVAPVLNAGNILQWALTLVGHRPGEDCAEYFHMAAAEVQGVTVPDGLLFVPYLHAERCPVELPAPRGALLGVTGATTRAQILLAVLEGAALSLRWCAELLGMEKVGLLKVVGGGARSEAWLRMIADNLNVSLLVKPDAHLHPLRGLAALAAVELEWSHSIQDFLREADLREPASNILHPQPCDEGRRRRKFERFKQCVETLGRLDEGHHHHHH”, the “soluble on expression in E. coli” value was “soluble”.
In the case of “MSLAKILVIDDESTILQNIKFLLEIDGNEVLTASSSTEGLRIFTENCNSIDVVITDMKMPKLSGMDILREIKKITPHMAVIILTGHGDLDNAILAMKEGAFEYLRKPVTAQDLSIAINNAINRKKLLMENERMTQELLAHRNYLQGLHDSAAKILLNMLPKNLPDIEGFNFAVDYKSCDGVGGDMYDVCDIGDYICFYVFDVSHHGILAAVISIIIKSFLQNIEYNYRQGINKRRFPEIVLDLNLELLSNTAQNVFASLFLGFIDKNSKKLYTVSAGHIPQYIMKENGLVPLESTGPILGVFEDSTYKCAVNQLEPGDKVLLFTDGIIESPSDSSDESSDGNQIFGYENMVKVLESCKNEPISTTIDKIMKAVKDFSGNRCTDDMTILGVEVLKENEGHHHHHH”, the “soluble on expression in E. coli” value is reported as “soluble”.
With “MSLAKVLVIDEDRSTLARLELLLTKDGYETVTASTGTDGLNRYVERYPDLVILDVFLSDVGGFTVLEELLEENEQAMVILMTAQLDMETAIRAMKLGAFDYVPKTADMAELLSVVHKASNTLETDRQQGGLSGEAFRNYKAGDIIGAGREMREIFKMVGVLSRSRATVLIEGESGTGKELVAKVIHKHTSSNEPFIAVNCSAIVETLLESELFGHEKGSFTSAFNRQLGKFELGRYGTVFLDEISEMSINLQAKLLRVLQEMEFERVGGKDKIQVHARIITATNKNLRTLVREGKFRADLYYRLNIVSLKIPPLRERQEDIPLLVNHLIAKIGRDLSRRISGVSEEVMEAFLRYTWPGNVRELENLLVRAGVMAKGRILDKSDFPELFKESGEGHHHHHH” the “soluble on expression in E. coli” value was “not soluble”.
